The supplement of paper PMC10065799, “High-throughput profiling of sequence recognition by tyrosine kinases and SH2 domains using bacterial peptide display” (eLife, 2023)

Assays:
c-Abl (mouse) = assay: phosphorylation enrichment, bacterial display (enrichment ratio); higher = better substrate or ligand; peptides without Tyr show the background
Jak2 = Jak2 (UniProt O60674); assay: as above
EPHB2 = EPHB2 (UniProt P29323); assay: as above
FGFR3 = FGFR3 (UniProt P22607); assay: as above
Fer (mouse) = assay: as above
Fyn = Fyn (UniProt P06241); assay: as above
Hck = Hck (UniProt P08631); assay: as above
c-Src = assay: as above
MERTK = MERTK (UniProt Q12866); assay: as above
FGFR1 = FGFR1 (UniProt P11362); assay: as above
AncSZ = assay: as above
Fes = Fes (UniProt P07332); assay: as above
EPHB1 = EPHB1 (UniProt P54762); assay: as above
c-Src SH2 = assay: SH2 binding enrichment of the phosphorylated peptide, bacterial display (enrichment ratio); higher = better substrate or ligand; peptides without Tyr show the background
Grb2 SH2 = Grb2 SH2 (UniProt P62993); assay: as above
SHP2-C SH2 = assay: as above
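Wherever SH2 binding enrichment of the phosphorylated peptide, bacterial display is given: peptide library displayed on the E. coli surface as eCPX fusions, selected cells deep-sequenced, score is each peptide's frequency after selection divided by its frequency in the input.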
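Wherever phosphorylation enrichment, bacterial display is given: 11-residue human phosphosite peptides and single-mutation variants displayed on the E. coli surface, counted by deep sequencing, each peptide's frequency after selection divided by its frequency in the unselected input library; frequency after pTyr selection over input frequency; kinase dosed for 20-30% of maximal phosphorylation in three min.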

Chain of EPHB1 (P54762 whole entry, looked up): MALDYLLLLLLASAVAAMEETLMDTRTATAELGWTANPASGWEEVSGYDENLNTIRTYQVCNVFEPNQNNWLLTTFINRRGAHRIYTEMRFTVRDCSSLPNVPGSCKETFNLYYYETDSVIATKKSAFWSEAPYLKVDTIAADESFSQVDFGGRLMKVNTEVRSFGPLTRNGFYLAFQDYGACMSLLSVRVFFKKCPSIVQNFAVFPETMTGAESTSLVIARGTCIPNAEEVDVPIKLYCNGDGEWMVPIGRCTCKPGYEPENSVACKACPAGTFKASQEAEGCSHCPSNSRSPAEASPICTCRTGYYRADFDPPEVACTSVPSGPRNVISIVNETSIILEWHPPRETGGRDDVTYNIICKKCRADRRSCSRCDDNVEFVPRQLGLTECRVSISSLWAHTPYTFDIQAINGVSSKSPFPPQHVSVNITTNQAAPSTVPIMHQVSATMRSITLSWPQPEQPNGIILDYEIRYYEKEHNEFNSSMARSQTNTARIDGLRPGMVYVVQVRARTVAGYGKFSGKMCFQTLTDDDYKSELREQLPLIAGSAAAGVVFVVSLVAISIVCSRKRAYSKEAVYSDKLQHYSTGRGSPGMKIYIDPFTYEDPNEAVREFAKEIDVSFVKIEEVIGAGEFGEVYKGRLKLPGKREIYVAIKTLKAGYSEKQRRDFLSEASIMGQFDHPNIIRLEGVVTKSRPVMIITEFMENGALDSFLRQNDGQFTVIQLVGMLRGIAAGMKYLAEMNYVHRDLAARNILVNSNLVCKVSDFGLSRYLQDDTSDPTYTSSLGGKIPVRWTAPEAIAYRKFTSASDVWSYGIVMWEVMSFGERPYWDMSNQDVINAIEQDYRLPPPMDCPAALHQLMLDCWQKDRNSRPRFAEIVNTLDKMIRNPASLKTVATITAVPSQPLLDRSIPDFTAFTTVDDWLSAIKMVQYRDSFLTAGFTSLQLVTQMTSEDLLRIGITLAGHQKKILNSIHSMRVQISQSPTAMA
Chain of Hck (P08631 whole entry, looked up): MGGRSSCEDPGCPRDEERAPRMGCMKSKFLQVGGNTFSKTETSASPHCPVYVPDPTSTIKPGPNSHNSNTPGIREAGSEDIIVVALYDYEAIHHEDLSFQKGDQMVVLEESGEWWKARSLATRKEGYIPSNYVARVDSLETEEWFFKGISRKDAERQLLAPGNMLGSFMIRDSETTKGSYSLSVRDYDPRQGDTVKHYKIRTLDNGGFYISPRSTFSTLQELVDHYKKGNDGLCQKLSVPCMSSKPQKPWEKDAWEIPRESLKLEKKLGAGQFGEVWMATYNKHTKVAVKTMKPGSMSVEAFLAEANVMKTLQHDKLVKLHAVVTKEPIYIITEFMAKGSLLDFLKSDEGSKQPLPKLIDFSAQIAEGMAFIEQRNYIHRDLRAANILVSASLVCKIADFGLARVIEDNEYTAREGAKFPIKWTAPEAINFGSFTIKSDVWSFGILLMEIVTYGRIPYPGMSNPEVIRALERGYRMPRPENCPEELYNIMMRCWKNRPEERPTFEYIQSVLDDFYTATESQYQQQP
Chain of MERTK (Q12866 whole entry, looked up): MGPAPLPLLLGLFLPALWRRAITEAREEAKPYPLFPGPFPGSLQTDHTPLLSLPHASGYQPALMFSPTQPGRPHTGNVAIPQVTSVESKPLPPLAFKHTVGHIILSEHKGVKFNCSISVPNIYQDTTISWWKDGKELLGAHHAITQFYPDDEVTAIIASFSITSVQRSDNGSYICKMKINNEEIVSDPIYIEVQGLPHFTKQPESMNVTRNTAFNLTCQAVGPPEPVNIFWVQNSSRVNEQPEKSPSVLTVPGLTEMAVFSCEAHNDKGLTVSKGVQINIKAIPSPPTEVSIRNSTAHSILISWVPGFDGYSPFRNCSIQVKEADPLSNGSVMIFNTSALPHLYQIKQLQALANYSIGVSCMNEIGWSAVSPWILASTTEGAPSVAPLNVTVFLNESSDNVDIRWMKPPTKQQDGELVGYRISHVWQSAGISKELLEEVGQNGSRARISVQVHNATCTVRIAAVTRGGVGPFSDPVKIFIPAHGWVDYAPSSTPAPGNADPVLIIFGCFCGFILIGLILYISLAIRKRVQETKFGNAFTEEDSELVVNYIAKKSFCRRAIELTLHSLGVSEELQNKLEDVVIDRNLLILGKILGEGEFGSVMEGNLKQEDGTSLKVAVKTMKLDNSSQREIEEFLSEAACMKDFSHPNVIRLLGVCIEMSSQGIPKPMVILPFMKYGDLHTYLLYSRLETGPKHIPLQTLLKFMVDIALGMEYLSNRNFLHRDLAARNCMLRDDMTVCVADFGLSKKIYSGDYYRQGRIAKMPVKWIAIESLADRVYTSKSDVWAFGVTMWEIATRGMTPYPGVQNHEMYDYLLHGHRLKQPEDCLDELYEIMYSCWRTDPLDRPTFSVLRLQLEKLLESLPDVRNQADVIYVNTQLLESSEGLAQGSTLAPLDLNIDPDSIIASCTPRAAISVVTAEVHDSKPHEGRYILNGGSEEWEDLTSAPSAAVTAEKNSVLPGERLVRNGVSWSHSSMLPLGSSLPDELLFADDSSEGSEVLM
Chain of Fes (P07332 whole entry, looked up): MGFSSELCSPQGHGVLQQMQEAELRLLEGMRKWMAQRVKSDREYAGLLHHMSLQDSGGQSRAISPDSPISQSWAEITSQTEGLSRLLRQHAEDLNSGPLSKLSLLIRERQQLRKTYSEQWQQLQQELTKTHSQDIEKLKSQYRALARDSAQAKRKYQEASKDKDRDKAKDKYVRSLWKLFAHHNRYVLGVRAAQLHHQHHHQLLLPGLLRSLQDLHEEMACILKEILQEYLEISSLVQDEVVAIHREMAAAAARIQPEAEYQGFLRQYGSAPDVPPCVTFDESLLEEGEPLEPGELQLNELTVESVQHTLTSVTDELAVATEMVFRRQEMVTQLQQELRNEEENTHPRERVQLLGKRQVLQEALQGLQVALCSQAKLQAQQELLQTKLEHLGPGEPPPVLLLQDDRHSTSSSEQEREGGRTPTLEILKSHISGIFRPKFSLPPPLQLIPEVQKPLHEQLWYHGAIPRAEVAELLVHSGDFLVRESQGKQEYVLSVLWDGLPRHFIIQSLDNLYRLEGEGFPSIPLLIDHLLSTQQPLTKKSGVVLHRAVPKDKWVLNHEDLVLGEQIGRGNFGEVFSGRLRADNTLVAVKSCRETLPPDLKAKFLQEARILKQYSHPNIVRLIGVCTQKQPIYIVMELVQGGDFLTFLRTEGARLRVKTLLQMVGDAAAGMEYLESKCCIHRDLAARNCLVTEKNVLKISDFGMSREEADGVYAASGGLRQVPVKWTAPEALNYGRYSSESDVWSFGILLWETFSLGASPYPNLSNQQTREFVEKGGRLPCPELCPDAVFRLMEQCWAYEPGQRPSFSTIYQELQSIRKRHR
Chain of FGFR3 (P22607 whole entry, looked up): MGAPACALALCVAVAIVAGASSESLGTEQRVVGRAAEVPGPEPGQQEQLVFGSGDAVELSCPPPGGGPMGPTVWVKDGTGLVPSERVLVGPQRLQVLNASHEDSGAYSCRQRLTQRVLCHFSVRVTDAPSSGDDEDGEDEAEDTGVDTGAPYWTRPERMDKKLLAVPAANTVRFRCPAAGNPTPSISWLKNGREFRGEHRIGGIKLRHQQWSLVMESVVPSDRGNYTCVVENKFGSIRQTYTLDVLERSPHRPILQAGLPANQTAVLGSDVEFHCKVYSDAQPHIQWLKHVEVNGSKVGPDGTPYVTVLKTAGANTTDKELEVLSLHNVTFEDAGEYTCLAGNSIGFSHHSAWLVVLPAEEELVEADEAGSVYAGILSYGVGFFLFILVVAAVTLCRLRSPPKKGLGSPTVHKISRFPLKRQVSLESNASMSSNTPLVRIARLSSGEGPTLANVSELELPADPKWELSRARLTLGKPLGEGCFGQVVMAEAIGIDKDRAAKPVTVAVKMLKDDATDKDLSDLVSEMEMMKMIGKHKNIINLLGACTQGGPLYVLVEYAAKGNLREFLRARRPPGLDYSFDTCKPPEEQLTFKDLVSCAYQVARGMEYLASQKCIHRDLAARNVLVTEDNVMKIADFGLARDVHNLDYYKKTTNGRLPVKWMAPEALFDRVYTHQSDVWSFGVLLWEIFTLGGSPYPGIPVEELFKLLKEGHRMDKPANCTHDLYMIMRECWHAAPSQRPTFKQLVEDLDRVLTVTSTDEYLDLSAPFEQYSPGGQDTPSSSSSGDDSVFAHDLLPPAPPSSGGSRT
Chain of Fyn (P06241 whole entry, looked up): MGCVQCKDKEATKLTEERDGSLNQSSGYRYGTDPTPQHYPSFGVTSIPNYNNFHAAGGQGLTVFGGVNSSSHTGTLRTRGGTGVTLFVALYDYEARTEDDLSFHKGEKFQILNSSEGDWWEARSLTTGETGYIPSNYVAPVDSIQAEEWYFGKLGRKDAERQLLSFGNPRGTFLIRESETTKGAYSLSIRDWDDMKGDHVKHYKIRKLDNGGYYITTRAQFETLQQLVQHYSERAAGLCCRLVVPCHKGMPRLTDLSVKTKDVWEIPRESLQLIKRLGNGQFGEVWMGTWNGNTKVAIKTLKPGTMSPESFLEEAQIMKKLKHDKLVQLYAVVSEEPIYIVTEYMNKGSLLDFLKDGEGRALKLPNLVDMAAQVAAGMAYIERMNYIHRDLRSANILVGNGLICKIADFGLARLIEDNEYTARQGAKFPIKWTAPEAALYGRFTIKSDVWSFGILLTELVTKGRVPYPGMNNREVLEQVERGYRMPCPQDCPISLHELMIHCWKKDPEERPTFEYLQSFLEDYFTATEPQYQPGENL
Chain of Grb2 SH2 (P62993 whole entry, looked up): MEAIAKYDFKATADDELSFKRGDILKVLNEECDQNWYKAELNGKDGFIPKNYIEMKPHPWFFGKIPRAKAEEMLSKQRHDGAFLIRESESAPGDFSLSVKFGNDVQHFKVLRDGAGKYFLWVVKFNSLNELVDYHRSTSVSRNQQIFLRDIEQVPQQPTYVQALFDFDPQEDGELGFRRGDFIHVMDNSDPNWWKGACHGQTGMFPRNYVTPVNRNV

Sequence | phosphorylation enrichment (c-Abl (mouse)) | phosphorylation enrichment (Jak2) | phosphorylation enrichment (EPHB2) | phosphorylation enrichment (FGFR3) | phosphorylation enrichment (Fer (mouse)) | phosphorylation enrichment (Fyn) | phosphorylation enrichment (Hck) | phosphorylation enrichment (c-Src) | phosphorylation enrichment (MERTK) | phosphorylation enrichment (FGFR1) | phosphorylation enrichment (AncSZ) | phosphorylation enrichment (Fes) | phosphorylation enrichment (EPHB1) | SH2 binding enrichment (c-Src SH2) | SH2 binding enrichment (Grb2 SH2) | SH2 binding enrichment (SHP2-C SH2)
ICGVSYDEFRF [CFTR_Y512_F508C_YF] | 1.03 | 1.21 | 0.642 | 0.967 | 1.17 | 0.764 | 0.842 | 1.49 | 0.571 | 0.553 | 1.51 | 1.5 | 0.663 | 0.847 | 0.838 | 0.664
GFPVHYTGVSN [DNMT3B_Y815_D817G] | 0.608 | 0.424 | 0.424 | 0.413 | 0.453 | 0.359 | 0.438 | 0.358 | 0.361 | 0.392 | 0.545 | 0.598 | 0.38 | 1.06 | 0.878 | 2.09
RGYRVYYTPDS [PTPRF_Y450] | 1.3 | 1.93 | 1.04 | 0.634 | 1.11 | 0.979 | 1.37 | 0.947 | 3.59 | 0.784 | 1.22 | 1.07 | 1.24 | 5.05 | 0.707 | 1.27
DSIRDYEDGME [CLNS1A_Y214] | 0.844 | 1.66 | 0.784 | 0.729 | 0.49 | 0.647 | 0.612 | 0.521 | 0.599 | 0.628 | 1.29 | 1.26 | 0.749 | 0.579 | 0.851 | 0.859
DPHECYAEVFD [ALB_Y394_K396E] | 0.817 | 1.01 | 0.807 | 1.25 | 0.617 | 0.753 | 0.944 | 0.775 | 0.626 | 1.2 | 1.32 | 1.55 | 0.871 | 1.23 | 1.1 | 0.954
MDNQEYKDAFK [BRDT_Y331_YF] | 1.22 | 1.22 | 0.602 | 0.67 | 0.505 | 0.493 | 0.584 | 0.526 | 0.442 | 0.504 | 1.15 | 1.39 | 0.715 | 0.532 | 1.07 | 0.721
ELANFYKLHHI [AK7_Y391_YF] | 0.8 | 0.922 | 0.863 | 0.672 | 0.874 | 0.689 | 0.796 | 0.819 | 0.67 | 0.561 | 0.63 | 1.06 | 0.638 | 0.481 | 0.901 | 1.01
KGRGEYSAIKA [PRKCD_Y374_F375S] | 0.761 | 0.636 | 0.366 | 0.443 | 0.45 | 0.412 | 0.811 | 0.625 | 0.603 | 0.393 | 0.553 | 0.864 | 0.434 | 1.81 | 0.974 | 0.933
YEPDAYYDLDQ [ELP5_Y302_D303Y] | 0.861 | 1.61 | 0.833 | 6.94 | 0.919 | 1.62 | 0.852 | 2.06 | 0.65 | 8.16 | 1.82 | 1.56 | 1.05 | 1.88 | 0.807 | 0.626
DRTVNYVLKCR [PLEKHG4_Y1068] | 0.764 | 0.898 | 0.67 | 0.778 | 0.566 | 0.515 | 0.688 | 0.43 | 0.357 | 0.517 | 1.15 | 1.17 | 0.668 | 0.83 | 0.728 | 0.61
AASTDYNKRGD [PDHA1_Y242_Y243N] | 0.67 | 0.515 | 0.313 | 0.451 | 0.386 | 0.37 | 0.509 | 0.618 | 0.453 | 0.452 | 0.578 | 0.505 | 0.453 | 0.567 | 0.754 | 0.574
SLNAVYPRAGS [OAS3_Y376] | 0.507 | 0.462 | 0.323 | 0.357 | 0.314 | 0.331 | 0.368 | 0.368 | 0.378 | 0.384 | 0.451 | 0.481 | 0.306 | 0.452 | 0.872 | 0.509
VWALTYCDLHK [KCNH2_Y827_R823W] | 0.809 | 1.49 | 0.76 | 0.967 | 0.594 | 0.605 | 0.632 | 1.2 | 0.507 | 0.823 | 1.28 | 1.32 | 1.75 | 0.655 | 0.884 | 0.791
FGSVDYWEKFF [EEF1AKNMT_Y16] | 0.841 | 1.1 | 0.587 | 1.05 | 0.506 | 0.499 | 0.55 | 0.523 | 0.457 | 0.909 | 1.16 | 1.23 | 0.633 | 0.493 | 0.749 | 0.759
PLLEFYRDIFT [CDAN1_Y713_YF] | 1.18 | 2 | 0.874 | 1.33 | 0.732 | 0.669 | 0.626 | 0.816 | 0.81 | 0.822 | 1.85 | 2.2 | 0.95 | 0.473 | 0.857 | 0.966
RYVVLYDAELT [ERCC4_Y581] | 0.817 | 1.24 | 1.96 | 1.04 | 0.629 | 0.657 | 0.66 | 0.605 | 1.98 | 0.736 | 1.3 | 1.49 | 2.77 | 6.75 | 1.47 | 7.24
DKWFLYKMRDI [CPS1_Y879] | 0.963 | 1.32 | 0.57 | 0.77 | 0.505 | 0.444 | 0.469 | 0.403 | 0.311 | 0.466 | 1.14 | 1.36 | 0.671 | 0.373 | 0.838 | 0.661
HNVPIYEGYAL [ACTA1_Y168] | 13.2 | 1.06 | 35.1 | 0.616 | 24.7 | 16.9 | 15.1 | 12.6 | 13.1 | 0.792 | 1.56 | 5.3 | 26 | 2.97 | 0.881 | 1.01
PSELYYSKISP [SMG1_Y2254_G2258S] | 4.3 | 6.46 | 3.13 | 8.81 | 23.8 | 6.66 | 17.9 | 8.68 | 23.1 | 11.7 | 2.87 | 2.15 | 6.25 | 4.6 | 1.18 | 2.66
RVYRDYVLKSA [HTATIP2_Y111_D108Y] | 0.624 | 0.836 | 0.76 | 0.825 | 0.493 | 0.645 | 0.841 | 0.794 | 0.693 | 0.833 | 1.07 | 1.05 | 1.01 | 0.481 | 0.959 | 0.612
